Reference: patent US12295997B2, “Prostate neoantigens and their uses” (Janssen Biotech, Inc., priority 2020, dated 2025)

B1: P19 (peptide, listed as Homo sapiens)
chain: WTPIPVLTRWPLPHPPPWRRATSCRMARSSPSATSGSSVRRRCSSLPSWVWNLAASTRPRSTPS

How the values were obtained:
Experiment in all cases: In vitro binding of neoantigens to class I MHC (UV peptide exchange, HLA class I ELISA)
Conditions in all cases: 100% = same binding as positive control peptide
HLA-B*08:01 = HLA-B*08:01 (Homo sapiens, UniProt P01889, A93T/A95T/D138N/E176V/E187T/K202T/Q94N/R180D/S35A/V36M/Y33D/Y91F)
Experimental: (§1) The 9 mer peptides identified by bioinformatics analysis were analyzed for their binding propensities to 6 common HLA class I alleles (HLA-A*01:01, A*02:01, A*03:01, A*24:02, B*07:02, B*08:01). The principle of the method is briefly described below and consists of two parts, one involving exchange of peptide with a positive control induced by Ultraviolet (UV) radiation, and the second is an enzyme immunoassay to detect stable HLA-peptide and empty HLA complexes.
(§2) HLA-bound peptides are critical for the stability of the HLA complex. A conditional HLA class I complex was stabilized by an UV-labile peptide utilizing a different peptide (Pos) for each HLA (Pos: HLA-A*01:01: […](SEQ ID NO: 409), HLA-A*02:01: […] (SEQ ID NO: 410), HLA-A*03:01: […] (SEQ ID NO: 411), HLA-A*24:02: […] (SEQ ID NO: 412), HLA-B*07:02: […] (SEQ ID NO: 413), HLA-B*08:01: […] (SEQ ID NO: 414), which could be cleaved by UV irradiation when bound to the HLA molecule. Upon cleavage, the resulting peptide fragments dissociated from the HLA class I complex since their length was insufficient to bind stably to HLA. Under the conditions in which peptide cleavage was performed (neutral pH, on melting ice), the peptide-free HLA complex remained stable.
(§3) The exchange efficiency between the peptide of interest and Pos was analyzed using an HLA class I ELISA. The combined technologies allowed the identification of ligands for an HLA molecule of interest which are potentially immunogenic.
(§4) Exchange control peptide Pos was a high affinity binder to the relevant HLA class I allele while exchange control peptide Neg was a non-binder. The UV control represented UV-irradiation of conditional HLA class I complex in the absence of a rescue peptide.
(§5) The HLA class I ELISA is an enzyme immunoassay based on the detection of beta2-microglobulin (B2M) of (peptide-stabilized) HLA class I complexes. To this end streptavidin was bound onto polystyrene microtiter wells. After washing and blocking, HLA complex present in exchange reaction mixtures or ELISA controls was captured by the streptavidin on the microtiter plate via its biotinylated heavy chain. Non-bound material was removed by washing. Subsequently, horseradish peroxidase (HRP)-conjugated antibody to human B2M was added. The HRP-conjugated antibody binds only to an intact HLA complex present in the microtiter well because unsuccessful peptide exchange results in disintegration of the original UV-sensitive HLA complex upon UV illumination. In the latter case B2M was removed during the washing step. After removal of non-bound HRP conjugate by washing, a substrate solution was added to the wells. A coloured product formed in proportion to the amount of intact HLA complex present in the samples. After the reaction was terminated by the addition of a stop solution, absorbance was measured in a microtiter plate reader. The absorbance was normalized to the absorbance of an exchange control peptide (represents 100%). Suboptimal HLA binding of peptides with a moderate to low affinity for HLA class I molecules can also be detected by this ELISA technique (Rodenko, B et al. (2006) Nature Protocols 1: 1120-32).
(§6) Peptides that had 10% or greater exchange efficiency in one of the 6 HLA alleles were considered for further immunogenicity testing and analysis.
(§7) Binding of select neoepitopes to HLA-A*01:01, HLA-A*02:01, HLA-A*03:01, HLAA*24:02, HLAAB*07:02 and HLA-B*08:01 was evaluated using the assay described in Example 1. […] As a criterion for further evaluation, peptides with an exchange rate of at least 10% with the corresponding Pos peptide for at least one of the 6 HLA alleles that we considered for further evaluation. The exchange rates with the allele specific Pos peptides, of the 24 neoantigens so identified are summarized below in Table 17. Higher percentages correspond to stronger binding to the HLA allele. […]

HLA-A*01:01 = HLA-A*01:01 (Homo sapiens, UniProt P04439, A114D/A174V/A182V/D101N/D185E/E176A/E190D/L180R/Q94H/R68K/S129P/T187R/V100A/V91M/W191G)
Experimental: as §1, §2, §3, §4, §5, §6, §7

HLA-B*07:02 = HLA-B*07:02 (Homo sapiens, UniProt P01889)
Experimental: as §1, §2, §3, §4, §5, §6, §7

HLA-A*24:02 = HLA-A*24:02 (Homo sapiens, UniProt P04439, D101N/D140Y/D185E/E176V/E190D/F33S/G103R/G107R/I119L/I121M/I306V/K335N/L105A/L180Q/L300P/N151K/N90K/Q86E/Q94H/R106L/R138H/R89G/T104I/T345S/V100E/W191G/Y123F)
Experimental: as §1, §2, §3, §4, §5, §6, §7

HLA-A*02:01 = HLA-A*02:01 (Homo sapiens, UniProt P04439, D140Y/D185E/D98H/E176V/E277Q/G131W/G231S/I119V/I121R/I166T/I218V/L300P/L318F/N151K/N90K/P208A/P217A/Q86G/Q94H/R138H/R169H/T345S)
Experimental: as §1, §2, §3, §4, §5, §6, §7

Row | Molecule | Exchange rate with allele specific Pos peptide, HLA-B*08:01 (HLA-B*08:01) [%] | Exchange rate with allele specific Pos peptide, HLA-A*01:01 (HLA-A*01:01) [%] | Exchange rate with allele specific Pos peptide, HLA-B*07:02 (HLA-B*07:02) [%] | Exchange rate with allele specific Pos peptide, HLA-A*24:02 (HLA-A*24:02) [%] | Exchange rate with allele specific Pos peptide, HLA-A*02:01 (HLA-A*02:01) [%]
1 | P73 (DSSGNLLERNSFEVRV; listed as Homo sapiens) [Peptide P73] | 2.6 | 2.1 | 8.7 | 0.5 | 89.2
2 | YEAGMTLGGKILFFLFLLLPLSPFSLIF (listed as Homo sapiens) [Neoantigen P87] | 3.1 | 1.1 | 5 | 0.2 | 64
3 | P56 (PKSEVRAKCKFSILNAK; listed as Homo sapiens) [Peptide P56] | 38 | 2.6 | 82.5 | 0.5 | 8.4
4 | YEAGMTLGEKFRVGNCKHLKMTRP (listed as Homo sapiens) [Neoantigen P82] | 1.4 | 1.5 | 12.9 | −0.1 | 6.3
5 | P46 (DDRNTFDIVWWCPMSRLRLALTVPPSTTTTCVTVPAWAA; listed as Homo sapiens) [Peptide P46] | 14.5 | 2.4 | 64.8 | −0.4 | 14.4
6 | P60 (CYLRRQKRLKCEKQPGA; listed as Homo sapiens) [Peptide P60] | 10.2 | 3.1 | 6.1 | 0.9 | 7.9
7 | P58 (MMAEIISVHVPKILSGK; listed as Homo sapiens) [Peptide P58] | 5.3 | 2.5 |  | 0.2 | 11.8
8 | P61 (MFENGCYLGRQKRFKCE; listed as Homo sapiens) [Peptide P61] | 3.6 | 1.7 |  | 90.3 | 5.8
9 | P98: neoantigen 9 mer fragment used for PBMC stimulation (FIG. 5D) (IVWWCPMSR; listed as Homo sapiens) [Neoantigen P98] | 2.4 | 2.5 | 6.7 | −0.1 | 7.9
10 | P97 (GYLRMQGLMAQRLLLR; listed as Homo sapiens) [Peptide P97] | 2.7 | 2.5 | 7 | 0.1 | 4.6
11 | SLYHREKQLIAMDSAI (listed as Homo sapiens) [Neoantigen P22] | 3.9 | 4.4 |  | 0 | 46.9
12 | B1 | 14.5 | 5.2 | 91.3 | 0.1 | 8.2
